Reference: patent US20100104554

Experiments:
[1] = target: T1, recombinant human cathepsin S propeptide (residues 17-113) with N-terminal hexahistidine tag, expressed from pQE30
T1 chain: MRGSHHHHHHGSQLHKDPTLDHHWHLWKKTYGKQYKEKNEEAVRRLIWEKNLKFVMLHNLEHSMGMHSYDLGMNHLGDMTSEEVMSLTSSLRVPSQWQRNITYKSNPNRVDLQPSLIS

B1: human cathepsin S (Calbiochem) (protein)
chain: LPDSVDWREKGCVTEVKYQGSCGACWAFSAVGALEAQLKLKTGKLVSLSAQNLVDCSTEKYGNKGCNGGFMTTAFQYIIDNKGIDSDASYPYKAMDLKCQYDSKYRAATCSKYTELPYGREDVLKEAVANKGPVSVGVDARHPSFFLYRSGVYYEPSCTQNVNHGVLVVGYGDLNGKEYWLVKNSWGHNFGEEGYIRMARNKGNHCGIASFPSYPEI
- hydrolysis of Z-VVR-AMC by CatS (fluorometric assay) (Fc-control protein): The Fc-control protein (200 nM) had no discernable effects on CatS activity
- elastinolytic turnover of Elastin-DQ by CatS over a 60 minute incubation [1]: the inventors were able to demonstrate inhibition of this activity
- hydrolysis of Cbz-Val-Val-Arg-AMC by CatS (fluorometric assay), rCatSPP 0 nM to 500 nM [1]: the dose-dependent inhibition of CatS activity was observed
